The term inhibition denotes the drop in the measured response relative to a control, in per cent. As a reminder, the stoichiometry N is the number of molecules, sites or subunits per partner or assembly. Usually Km stands for the substrate concentration at which the rate is half of its maximum. A word on the Vmax: it is the rate approached at saturating substrate.

Consider five molecules from PMC10799026, “Differences in regulation mechanisms of glutamine synthetases from methanogenic archaea unveiled by structural investigations” (Communications Biology, 2024).

Data set [1] concerns the target T1, MsGS (Methermicoccus shengliensis, UniProt A0A832VZP6).
T1 construct: gene glnA; native, purified anaerobically from M. shengliensis cells, no tag
T1 sequence (A0A832VZP6 1-442): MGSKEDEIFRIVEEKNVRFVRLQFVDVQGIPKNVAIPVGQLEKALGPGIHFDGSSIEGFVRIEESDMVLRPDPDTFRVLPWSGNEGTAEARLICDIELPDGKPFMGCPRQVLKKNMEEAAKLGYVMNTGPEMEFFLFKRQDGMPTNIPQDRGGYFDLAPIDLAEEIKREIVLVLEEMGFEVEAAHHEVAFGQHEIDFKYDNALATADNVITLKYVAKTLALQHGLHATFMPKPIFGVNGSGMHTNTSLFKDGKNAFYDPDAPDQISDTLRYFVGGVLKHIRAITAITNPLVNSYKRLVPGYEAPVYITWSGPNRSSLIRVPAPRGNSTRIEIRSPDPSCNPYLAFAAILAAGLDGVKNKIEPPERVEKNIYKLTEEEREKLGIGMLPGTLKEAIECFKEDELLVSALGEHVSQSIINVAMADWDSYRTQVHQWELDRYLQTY
Put plainly: PK/LDH coupled assay, NADH oxidation at […] nm. In kind it is biochemical. The conditions noted are these: read-out: % inhibition at 20 mM.

Data set [2] addresses glutamine synthetase (GSI-α) from Methanothermococcus thermolithotrophicus (Methanothermococcus thermolithotrophicus). Put plainly: native gel or EMSA; high-resolution clear native PAGE (hrCN PAGE), 5-12% gradient gels, 40 mA for 1 h, 2 µg purified GS; size from a fit to standard proteins. (In general: A gel shift assay detects complexes by their altered migration in electrophoresis.)

For data set [3] the target is unchanged. Put plainly: crystal structure; sitting drop, 20 °C, anaerobic; apo and ligand-bound (2OG/Mg2+, 2OG/Mg2+/ATP, Mg2+/ATP) crystal forms.
The target is the same in data set [4]. The experiment in a line: SEC; Superose 6 Increase 10/300 GL, anaerobic, 20 °C, 25 mM Tris/HCl pH 7.6, 10% glycerol, 2 mM DTT, 0.4 ml/min; 76 µg MtGS, 67.5 µg MsGS; size from a fit to standard proteins.
The target in data set [5] is glutamine synthetase (GSI-α) from Methermicoccus shengliensis (Methermicoccus shengliensis). Put plainly: native gel or EMSA; high-resolution clear native PAGE (hrCN PAGE), 5-12% gradient gels, 40 mA for 1 h, 2 µg purified GS; size from a fit to standard proteins.
For data set [6] the target is unchanged. Put plainly: crystal structure; sitting drop, 20 °C, anaerobic; apo and ligand-bound (2OG/Mg2+, 2OG/Mg2+/ATP, Mg2+/ATP) crystal forms.
Data set [7] has the same target. Put plainly: SEC; Superose 6 Increase 10/300 GL, anaerobic, 20 °C, 25 mM Tris/HCl pH 7.6, 10% glycerol, 2 mM DTT, 0.4 ml/min; 76 µg MtGS, 67.5 µg MsGS; size from a fit to standard proteins. In general terms: In gel filtration, larger molecules generally elute earlier.
Substrate in data set [8]: N[C@@H](CCC(=O)O)C(=O)O
The experiment in a line: purified protein. In kind it is biochemical, Methanothermococcus thermolithotrophicus. The conditions noted are these: in presence of 2 mM 2OG (required activator), 20 mM NH4Cl, 3 mM ATP, 25 mM MgCl2, pH 7, 45 °C, Hill fit.

Substrate in data set [9]: N
The experiment in a line: purified protein. To be noted: 3 mM ATP, 25 mM MgCl2, pH 7, 45 °C, Hill fit.

Substrate in data set [10]: N[C@@H](CCC(=O)O)C(=O)O
The experiment in a line: purified protein. It counts as biochemical, Methermicoccus shengliensis. To be noted: 20 mM NH4Cl, 3 mM ATP, 25 mM MgCl2, pH 7, 45 °C, standard mix contains 2 mM 2OG (no effect on MsGS), Hill fit.

[11] abbreviates: in presence of 2 mM 2OG (required activator), 50 mM glutamate.
[12] abbreviates: 80 mM glutamate, standard mix contains 2 mM 2OG (no effect on MsGS).

Take `NC(=O)CC[C@H](N)C(=O)O` [glutamine]: in data set [1], the inhibition at 20000 µM worked out at 97%.
For the molecule “glutamine synthetase (GSI-α) from Methanothermococcus thermolithotrophicus (enzyme)”, the stoichiometry N in [2], in [3] and in data set [4] was 12 each time.
As to “glutamine synthetase (GSI-α) from Methermicoccus shengliensis (enzyme)”, the stoichiometry N in data set [5], in data set [6] and in data set [7] was 12 in each case.

B1: MtGS (Methanothermococcus thermolithotrophicus DSM 2095) (protein)
chain: MSTVEQVLEYVKSNNVKFMRFQFVDILGVPKNVAFPIKAGEKGIEELRDVLENGLYFDGSSIEGFVGINESDMMLKPDLSTFSVLPWRPSEKSVARVICDVYTTKGKPFEGDPRGCLKRVMEEFKKEFNGEYFVGPEPEFFLLKKDPHNPHKYIPADDGGYFDLEPMDEAPDIRRDIVFALENLGFHVEASHHEVAPGQHEVDFKFDDALKTADSVITFKTTIKTIAEQHGLKATFMPKPFFGMNGSGMHCHQSIWLNGEPSFYDENAPYQLSETCMNYVAGILKHAKAIVAITNPTVNSYKRLVPGYEAPVNIAWANSNRSAIIRVPAARGKGTRIEFRAPDPSCNPYLAFTVMLAAGLDGVKNKLDAPEPVERNIFAMSEAEKKELGIESVPANLKAALDELENNDVLKNALGKHIFESFLEIKNAEWDSFRTSVTDWETTAYLKI
notes: native, purified anaerobically from M. thermolithotrophicus cells, no tag
As for B1, in [8], the Km was found to be 8.76 ± 0.87 mM and the Vmax is 3.42 µmol/min/mg. In addition, in data set [9] (setting [11]), the Km worked out at 0.14 ± 0.01 mM and the Vmax was found to be 3.27 µmol/min/mg.

B2: MsGS (Methermicoccus shengliensis) (protein)
chain: T1 sequence (A0A832VZP6 1-442)
notes: native, purified anaerobically from M. shengliensis cells, no tag
In the case of B2, in data set [9] (setting [12]), the Km was determined as 0.07 ± 0.01 mM and the Vmax turned out to be 0.98 µmol/min/mg. In addition, in [10], the Km stood at 32.57 ± 3.13 mM and the Vmax was 1.4 µmol/min/mg.
